Where two headings read alike, the source gives them in different places.
T1: ACVR2B-Fc fusion protein (human) (UniProt Q13705)
T1 sequence: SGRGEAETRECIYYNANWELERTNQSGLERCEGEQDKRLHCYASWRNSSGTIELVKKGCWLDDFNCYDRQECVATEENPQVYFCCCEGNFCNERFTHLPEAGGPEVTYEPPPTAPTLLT

B1: DLK1 A05 (monoclonal scFv-phage) (scFv, V domains shown)
VH: QMQLVESGGGLVQPGRSLRLSCAASGFTFDEHAMHWVRQAPGKGLEWVSGINWNSGKTGYADSVKGRFTISRDNGKNSLYLQMNSLRAEDTAVYYCAKSGGYGGNTNWYFDLWGRGTLVTVSS
VL: QFVLTQPPSVSGAPGQNVTISCIGTSSNIGVGYDVHWYQQVPGTAPKLLVYGNNNRPSGVPDRFSGSKSGTSASLAITGLQAEDEADYYCQSYDSRLGVVFGGGTKLTVL
B2: DLK1 H06 (monoclonal scFv-phage) (scFv, V domains shown)
VH: QVQLVQSGGGLIQPGGSLRLSCAASGFTFSLYGMSWVRQAPGKGLEWVSSIPGSGTRTHYADSVKGRFTISRDNSKNTLFLQMNSLRAEDTAVYYCAKSTAYLFDYWGPGTLVTVSS
VL: DIQMTQSPATLSLSPGERATLSCRASQSIRHYLAWYQQKPGQAPRLLIHGASSRATGIPDRFSGSGSGTDFTLTISRLEPEDFAVYYCQHYGSPLHSFGPGTKVEIK
B3: DLK1 B09 (monoclonal scFv-phage) (scFv, V domains shown)
VH: QMQLVESGGRLVRPGGSLRLSCAASGFPFTSYAMNWVRQTPGKGLEWVSTITATSGKTYYADSVKGRFTISRDNSRNTLFLQMNSLRAEDTAVYYCVRGESCSGGACSDFDYWGQGALVTVSS
VL: QLVLTQPASVSGSPGQSVTISCTGTSSDIGRYNRVSWYQHHPGKAPKLILNDVTTRPSGFSNRFSGSKSGNTASLTISGLQAEDEADYSCGSYAGSYTYVFGTGTKVTVL
B4: DLK1 A10 (monoclonal scFv-phage) (scFv, V domains shown)
VH: QVQLVESGGGLVQPGRSLRLSCAASGFTFDDYAMHWVRQAPGKGLEWVSGISWNSGSIGYADSVKGRFTISRDNAKNSLYLQMNSLRAEDTAVYYCARGPGLATGKGYADYWGQGTLVTVSS
VL: DIQMTQSPSSVSASVGDRVTITCRASQRISSWLAWYQQKPGRAPKLLIHSASTLHNGVPSRFSGSASGTDFTLTISSLQPEDYAIYYCQQGHSFPYTFGQGTKLEIK
B5: DLK1 A04 (monoclonal scFv-phage) (scFv, V domains shown)
VH: QVQLVESGAEVKKPGASVKVSCKASGYTFKDYAIHWVRQAPGQRLEWMGWINPGSGNTKYSHNFEGRVILTRDASANTAYLELPSLRSEDTAVYYCARSVSAYGSNYFDPWGQGTLITVSS
VL: DIQMTQSPSSLSASVGDRVTITCQASQDISNYLNWYQQKPGKAPKLLIYSTSNLQSGVPSRFSGSGSGTDFTLTISSLQPEDFATYYCQQLNSYPLTFGGGTKVDIK
B6: DLK1 H12 (monoclonal scFv-phage) (scFv, V domains shown)
VH: QVQLVQSGGGLVKPGGSLRLSCAASEFTFSDYYMSWVRQAPGKGLEWLSYISGSGITTYYADSVKGRFTISRDNGKKSLYLEMNSLRAEDTAVYYCARLQGHCSGGACSNWFDAWGQGTLITVSS
VL: DIQMTQSPSSLSASVGDRLTITCRASQSILTYLNWYQQKPGKAPKLLIYAASSLQRGVPSRFSGSGSGTDFTLTISGLQPEDFATYYCQQGYGTPYTFGQGTKVDIK
B7: ACVR2B A07 (monoclonal scFv-phage) (scFv, V domains shown)
VH: QLVESGGGLVRPGRSLTLSCTASGFTFNDYAMHWVRQAPGKGLEWVSGISWNTNSKAYADSVKGRFIISRDNAKNSLYLEMNSLRAEDTAVYYCVRDGGRFYYGLDVWGQGTSVTVSS
VL: DIVMTQTPVSSPVTLGQPASISCRSSQSLIHSDGNTYLSWIQQRPGQPPRLLIYKISNRFSGVPDRFSGSGAGTDFTLKISRVEAEDVGVYYCAETSQVPHTFGQGTKVEIK
modifications: scFv linker not given
B8: human antibody F08 (full-length IgG) (antibody, V domains shown)
VH: VQLVESGGGLVQPGGSLRLSCAASGFTFSDHYMDWVRQAPGKGLEWVGRTRNKANSYTTEYAASVKGRFTISRDDSKNSLYLQMNSLRAEDTAVYYCTKGAWLDYWGQGTLVTVSS
VL: IQMTQSPSAMSASVGDRVTITCRASQGISNYLAWFQQKPGKVPKRLIYGASSLQGGVPSRFSGSGSGTEFTLTITSLQPEDFATYFCLQHKSYPLTFGPGTKVEIK
modifications: constant regions not given

Tests used:
[1] = target: anti-myc antibody coated on the ELISA plate; assay: phage ELISA, anti-myc coated
Fc [2] = assay: phage ELISA, Fc coated
[3] = target: DLK1-Fc fusion protein (human); assay: phage ELISA, DLK1 coated
[4] = target: DLK1-Fc fusion protein (human); assay: phage ELISA; OD on DLK1 divided by OD on a-myc
Fc [5] = assay: phage ELISA, Fc coated; remark: listed apart in the source
[6] = target: anti-myc antibody coated on the ELISA plate; assay: phage ELISA, anti-myc coated; remark: listed apart in the source
[7] = target: T1, ACVR2B-Fc fusion protein (human); assay: phage ELISA; OD on ACVR2B divided by OD on a-myc
[8] = target: T1, ACVR2B-Fc fusion protein (human); assay: phage ELISA, ACVR2B coated
[9] = target: T1, ACVR2B-Fc fusion protein (human); assay: phage ELISA, ACVR2B coated; remark: listed apart in the source
[10] = target: T1, ACVR2B-Fc fusion protein (human); assay: SPR (ProteOn XPR36)

Sequence of DLK1-Fc fusion protein (human) (chain, as listed by the source limits assumed, form in doubt): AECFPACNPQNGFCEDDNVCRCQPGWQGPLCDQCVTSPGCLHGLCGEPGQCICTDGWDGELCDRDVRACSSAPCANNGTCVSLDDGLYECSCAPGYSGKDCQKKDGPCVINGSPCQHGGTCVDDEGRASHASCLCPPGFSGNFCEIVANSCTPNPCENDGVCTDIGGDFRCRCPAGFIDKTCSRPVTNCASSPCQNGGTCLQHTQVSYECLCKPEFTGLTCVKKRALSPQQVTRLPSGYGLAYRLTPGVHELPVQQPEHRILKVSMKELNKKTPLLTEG

Binder | OD490 [1] [OD] | OD490 (Fc [2]) [OD] | OD490 [3] [OD] | Ratio [4] | OD490 (Fc [5]) [OD] | OD490 [6] [OD] | Ratio [7] | OD490 [8] [OD] | OD490 [9] [OD] | Kd [10] [pM] | koff [10] [s⁻¹] | kon [10] [M⁻¹ s⁻¹]
B1 | 0.784 | 0.0704 | 2.99 | 3.81 | – | – | – | – | – | – | – | –
B2 | 0.863 | 0.0766 | 2.13 | 2.47 | – | – | – | – | – | – | – | –
B3 | 0.0918 | 0.0786 | 2.33 | 25.3 | – | – | – | – | – | – | – | –
B4 | 1.28 | 0.0828 | 2.83 | 2.21 | – | – | – | – | – | – | – | –
B5 | 0.507 | 0.0791 | 3.12 | 6.15 | – | – | – | – | – | – | – | –
B6 | 0.674 | 0.0539 | 3.2 | 4.75 | – | – | – | – | – | – | – | –
B7 | 0.213 | 0.0443 | – | – | 0.044 | 0.213 | 12.5 | 2.66 | 2.65 | – | – | –
B8 | – | – | – | – | – | – | – | – | – | 4.05 | 1.32e-05 | 3.25e+06

From patent US20150030595A1
